According to patent publication US20020110800A1, “Use of SHP-1 and SHP-2 to detect compounds involved in neuronal survival” (McGill University, priority 1997, published 2002):

Key:
Test in all cases: cell-based or functional assay
[1] = target: TrkA Y785F (UniProt P04629)
[2] = target: TrkA Y490/785F (UniProt P04629)
[3] = target: TrkA Y490F (UniProt P04629)
[4] = target: wild-type TrkA, baculovirus-expressed, activated (autophosphorylated) (UniProt P04629)

B1: SHP-2 (enzyme, UniProt Q06124 2-593, looked up, species assumed)
Tyrosine-protein phosphatase non-receptor type 11: TSRRWFHPNITGVEAENLLLTRGVDGSFLARPSKSNPGDFTLSVRRNGAVTHIKIQNTGDYYDLYGGEKFATLAELVQYYMEHHGQLKEKNGDVIELKYPLNCADPTSERWFHGHLSGKEAEKLLTEKGKHGSFLVRESQSHPGDFVLSVRTGDDKGESNDGKSKVTHVMIRCQELKYDVGGGERFDSLTDLVEHYKKNPMVETLGTVLQLKQPLNTTRINAAEIESRVRELSKLAETTDKVKQGFWEEFETLQQQECKLLYSRKEGQRQENKNKNRYKNILPFDHTRVVLHDGDPNEPVSDYINANIIMPEFETKCNNSKPKKSYIATQGCLQNTVNDFWRMVFQENSRVIVMTTKEVERGKSKCVKYWPDEYALKEYGVMRVRNVKESAAHDYTLRELKLSKVGQGNTERTVWQYHFRTWPDHGVPSDPGGVLDFLEEVHHKQESIMDAGPVVVHCSAGIGRTGTFIVIDILIDIIREKGVDCDIDVPKTIQMVRSQRSGMVQTEAQYRFIYMAVQHYIETLQRRIEEEQKSKRKGHEYTNIKYSLADQTSGDQSPLPPCTPTPPCAEMREDSARVYENVGLMQQQKSFR
2 fold: Trk tyrosine dephosphorylation on co-expression in insect cells (anti-pTyr blot) [1] | Trk tyrosine dephosphorylation on co-expression in insect cells (anti-pTyr blot) [2] | Trk tyrosine dephosphorylation on co-expression in insect cells (anti-pTyr blot) [3] | Trk tyrosine dephosphorylation on co-expression in insect cells (anti-pTyr blot) [4] | dephosphorylation of Trk at Y674/Y675 (phospho-specific anti-Trk antibodies, co-expression in insect cells) [4]
